Test results reported in patent US20200317768A1 (published 2020).
Residue numbers refer to the chain shown, from its start. Values belong to the binder of their own block, whether it stands above or below them.

Legend:
Assay in all cases: SPR (BIACORE), captured antibody, FcgR as analyte
[1] = target: T1, cynomolgus monkey FcγRIIa1 extracellular domain, His-tagged (cynomolgus monkey)
T1 construct: also called cyno FcγRIIa1; cynoFcgRIIa1; not shown: C-terminal His-tag
T1 chain: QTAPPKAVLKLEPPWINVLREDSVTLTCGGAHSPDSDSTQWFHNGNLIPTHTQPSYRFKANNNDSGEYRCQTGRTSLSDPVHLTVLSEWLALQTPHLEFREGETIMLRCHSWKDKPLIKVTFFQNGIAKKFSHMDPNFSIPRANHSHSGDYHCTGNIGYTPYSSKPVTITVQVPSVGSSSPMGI

[2] = target: T2, cynomolgus monkey FcγRIIa2 extracellular domain, His-tagged (cynomolgus monkey)
T2 construct: also called cyno FcγRIIa2; cynoFcgRIIa2; not shown: C-terminal His-tag
T2 chain: T1 chain with P95T, T121A, I127K, A128S, K130N, D135N, R142Q

[3] = target: T3, cynomolgus monkey FcγRIIa3 extracellular domain, His-tagged (cynomolgus monkey)
T3 construct: also called cyno FcγRIIa3; cynoFcgRIIa3; not shown: C-terminal His-tag
T3 chain: T1 chain with P95T, T121A, A128S, H133P, D135N

[4] = target: T4, cynomolgus monkey FcγRIIb extracellular domain, His-tagged (cynomolgus monkey)
T4 construct: also called cyno FcγRIIb; cynoFcγRIIb; not shown: C-terminal His-tag
T4 chain: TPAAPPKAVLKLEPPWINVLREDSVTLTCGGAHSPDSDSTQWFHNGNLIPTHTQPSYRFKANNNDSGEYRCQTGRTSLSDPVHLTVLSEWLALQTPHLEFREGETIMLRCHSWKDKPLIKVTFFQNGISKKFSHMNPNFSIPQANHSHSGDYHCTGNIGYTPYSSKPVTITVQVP

[5] = target: T5, cynomolgus monkey FcγRIIIaS extracellular domain, His-tagged (cynomolgus monkey, UniProt Q8SPW2 21-206 at identity 1.00))
T5 construct: also called cyno FcγRIIIaS; cynoFcγRIIIaS; not shown: C-terminal His-tag
T5 chain: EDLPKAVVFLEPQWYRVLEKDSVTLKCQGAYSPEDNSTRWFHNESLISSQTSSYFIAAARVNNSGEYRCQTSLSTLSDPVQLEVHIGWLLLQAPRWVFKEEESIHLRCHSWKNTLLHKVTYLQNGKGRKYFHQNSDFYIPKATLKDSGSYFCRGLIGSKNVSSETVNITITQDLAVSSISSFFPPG

[6] = target: T6, human FcγRIIaH extracellular domain, His-tagged (human, UniProt P12318 34-217)
T6 construct: also called human FcγRIIa (type H); FcgRIIaH; not shown: C-terminal His-tag
T6 sequence: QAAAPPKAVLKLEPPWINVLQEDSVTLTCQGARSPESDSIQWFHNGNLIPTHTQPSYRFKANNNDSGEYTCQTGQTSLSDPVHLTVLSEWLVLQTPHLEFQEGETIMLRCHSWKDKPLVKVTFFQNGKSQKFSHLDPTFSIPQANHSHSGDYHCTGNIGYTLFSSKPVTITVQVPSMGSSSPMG

[7] = target: T7, human FcγRIIaR extracellular domain, His-tagged (human, UniProt P12318 34-217)
T7 construct: also called human FcγRIIa (type R); FcgRIIaR; not shown: C-terminal His-tag
T7 chain: T6 sequence with H134R

[8] = target: T8, human FcγRIIb extracellular domain, His-tagged (human, UniProt P31994 43-217)
T8 construct: also called FcgRIIb (human); not shown: C-terminal His-tag
T8 sequence: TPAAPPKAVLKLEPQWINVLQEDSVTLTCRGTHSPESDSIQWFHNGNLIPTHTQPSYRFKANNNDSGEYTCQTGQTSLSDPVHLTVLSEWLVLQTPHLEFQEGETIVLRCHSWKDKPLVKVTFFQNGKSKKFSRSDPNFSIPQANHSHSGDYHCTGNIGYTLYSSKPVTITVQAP

[9] = target: T9, human FcγRIIIaV extracellular domain, His-tagged (human, UniProt P08637 17-208)
T9 construct: also called FcgRIIIaV; not shown: C-terminal His-tag
T9 sequence (P08637 17-208 F176V): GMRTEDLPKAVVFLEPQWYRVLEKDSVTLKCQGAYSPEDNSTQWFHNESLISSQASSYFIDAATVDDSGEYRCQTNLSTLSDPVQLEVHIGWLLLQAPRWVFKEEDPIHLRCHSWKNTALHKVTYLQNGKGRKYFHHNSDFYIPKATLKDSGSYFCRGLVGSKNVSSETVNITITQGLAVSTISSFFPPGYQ

Kd [1]: 1000 nM
Kd [2]: 1000 nM
Kd [3]: 2300 nM
Kd [4]: 270 nM
Kd [5]: 1700 nM
Kd [6]: 90 nM
Kd [7]: 210 nM
Kd [8]: 1100 nM
Kd [9]: 5000 nM
B1: M103205H795-MY475/M103202L889-SK1 (antibody, human IgG1, kappa)
heavy: QVTLKESGPVLVKPTETLTLTCTVSGIDLSHDDISWVRQAPGKGLEWVGIISYAGSTYYASWAKGRLTISKDTSKNQVVLTMTNMDPVDTATYYCARGVPAYSHGGDLWGQGTLVTVSSASTKGPSVFPLAPSSKSTSGGTAALGCLVKDYFPEPVTVSWNSGALTSGVHTFPAVLQSSGLYSLSSVVTVPSSSLGTQTYICNVNHKPSNTKVDKKVEPKSCDKTHTCPPCPWPELLTGPSVFLFPPKPKDTLMISRTPEVTCVVVDVSDEDPEVKFNWYVDGVEVHNAKTKPREEQYNSTYRVVSVLTVLHQDWLNGKEYKCKVSNKALPKPIEKTISKAKGQPREPQVYTLPPSREEMTKNQVSLTCLVKGFYPSDIAVEWESNGQPENNYKTTPPVLDSDGSFFLYSKLTVDKSRWQQGNVFSCSVMHEALHNHYTQKSLSLSP
light: DIVMTQSPATLSLSPGERATLSCTSSQSVYHANWLSWFQQKPGQPPKLLIYWASTLAYGVPSRFSGSGSGTDFTLTISSLQPEDAATYYCAGGYGGGRYAFGQGTKVEIKRTVAAPSVFIFPPSDEQLKSGTASVVCLLNNFYPREAKVQWKVDNALQSGNSQESVTEQDSKDSTYSLSSTLTLSKADYEKHKVYACEVTHQGLSSPVTKSFNRGEC
notes: copies: 2 + 2

Kd [1]: 1400 nM
Kd [2]: 1300 nM
Kd [3]: 2600 nM
Kd [4]: 590 nM
Kd [5]: 2000 nM
Kd [6]: 140 nM
Kd [7]: 250 nM
Kd [8]: 1200 nM
Kd [9]: 5500 nM
B2: M103205H795-MY476/M103202L889-SK1 (antibody, human IgG1, kappa)
heavy: B1 heavy with W233Y
light: B1 light
notes: copies: 2 + 2
